In paper PMC6016253, “The ICP27 Homology Domain of the Human Cytomegalovirus Protein UL69 Adopts a Dimer-of-Dimers Structure” (mBio, 2018):

Biological target: the molecule itself
Assay: SEC-MALS; 0.5 ml at 1 mg/ml on Superdex 200 10/300 GL, 0.75 ml/min; 20 mM HEPES, 150 mM NaCl, 50 mM L-Arg, 50 mM L-Glu, 1 mM TCEP, pH 7.9

Protein	stoichiometry N
UL69long (HCMV UL69 residues 200 to 540) (domain or fragment, UL69 of human cytomegalovirus (HCMV), 744 amino acids; residues 200 to 540: ICP27 homology domain plus an N-terminal region conserved only in betaherpesviruses; gene synthesis, codon optimized; HRV3C protease-cleavable N-terminal thioredoxin tag plus Strep-tag; also called UL69 tetramer; not shown: thioredoxin, N-terminal, cleaved) GPQQQQMLALIDDELDAMDEDELQQLSRLIEKKKRARLQRGAASSGTSPSSTSPVYDLQRYTAESLRLAPYPADLKVPTAFPQDHQPRGRILLSHDELMHTDYLLHIRQQFDWLEEPLLRKLVVEKIFAVYNAPNLHTLLAIIDETLSYMKYHHLHGLPVNPHDPYLETVGGMRQLLFNKLNNLDLGCILDHQDGWGDHCSTLKRLVKKPGQMSAWLRDDVCDLQKRPPETFSQPMHRAMAYVCSFSRVAVSLRRRALQVTGTPQFFDQFDTNNAMGTYRCGAVSDLILGALQCHECQNEMCELRIQRALAPYRFMIAYCPFDEQSLLDLTVFAGTTTTTA	4
UL69short (HCMV UL69 residues 248 to 536) (domain or fragment, UL69 of human cytomegalovirus (HCMV), 744 amino acids; residues 248 to 536: ICP27 homology domain only; gene synthesis, codon optimized; HRV3C protease-cleavable N-terminal thioredoxin tag plus Strep-tag; not shown: thioredoxin, N-terminal, cleaved) PSSTSPVYDLQRYTAESLRLAPYPADLKVPTAFPQDHQPRGRILLSHDELMHTDYLLHIRQQFDWLEEPLLRKLVVEKIFAVYNAPNLHTLLAIIDETLSYMKYHHLHGLPVNPHDPYLETVGGMRQLLFNKLNNLDLGCILDHQDGWGDHCSTLKRLVKKPGQMSAWLRDDVCDLQKRPPETFSQPMHRAMAYVCSFSRVAVSLRRRALQVTGTPQFFDQFDTNNAMGTYRCGAVSDLILGALQCHECQNEMCELRIQRALAPYRFMIAYCPFDEQSLLDLTVFAGTT	2
